The values below come from PMC6181050.

The target in experiment [1] is PSI core complex (Chlamydomonas reinhardtii) (UniProt P12154). The experiment in a line: co-purification by sucrose density gradient ultracentrifugation with 14C autoradiography; PSI-LHCI supercomplex from uniformly 14C-labelled wild-type cells; NaBr-washed thylakoids solubilised with 0.8% beta-DDM; TLS-55 rotor, 259,000g, 2.5 h; polypeptides separated by three SDS-PAGE systems; signal divided by carbon number and normalised to PSAF.

The target is the same in experiment [2]. The experiment in a line: co-purification by sucrose density gradient ultracentrifugation with immunoblotting; PSI-LHCI complex from the ΔLHCA5 mutant (no LHCA5); thylakoids solubilised with 1% beta-DDM; SW41Ti, 288,000g, 4°C, 16 h; immunoblots normalised to PSAD.
Experiment [3] has as its target PSAF (Chlamydomonas reinhardtii). The experiment in a line: co-purification by sucrose density gradient ultracentrifugation with 14C autoradiography; PSI-LHCI supercomplex from uniformly 14C-labelled wild-type cells; NaBr-washed thylakoids solubilised with 0.8% beta-DDM; TLS-55 rotor, 259,000g, 2.5 h; polypeptides separated by three SDS-PAGE systems; signal divided by carbon number and normalised to PSAF.

Sequence of UniProt P12154 (P12154 whole entry, looked up, one chain of several): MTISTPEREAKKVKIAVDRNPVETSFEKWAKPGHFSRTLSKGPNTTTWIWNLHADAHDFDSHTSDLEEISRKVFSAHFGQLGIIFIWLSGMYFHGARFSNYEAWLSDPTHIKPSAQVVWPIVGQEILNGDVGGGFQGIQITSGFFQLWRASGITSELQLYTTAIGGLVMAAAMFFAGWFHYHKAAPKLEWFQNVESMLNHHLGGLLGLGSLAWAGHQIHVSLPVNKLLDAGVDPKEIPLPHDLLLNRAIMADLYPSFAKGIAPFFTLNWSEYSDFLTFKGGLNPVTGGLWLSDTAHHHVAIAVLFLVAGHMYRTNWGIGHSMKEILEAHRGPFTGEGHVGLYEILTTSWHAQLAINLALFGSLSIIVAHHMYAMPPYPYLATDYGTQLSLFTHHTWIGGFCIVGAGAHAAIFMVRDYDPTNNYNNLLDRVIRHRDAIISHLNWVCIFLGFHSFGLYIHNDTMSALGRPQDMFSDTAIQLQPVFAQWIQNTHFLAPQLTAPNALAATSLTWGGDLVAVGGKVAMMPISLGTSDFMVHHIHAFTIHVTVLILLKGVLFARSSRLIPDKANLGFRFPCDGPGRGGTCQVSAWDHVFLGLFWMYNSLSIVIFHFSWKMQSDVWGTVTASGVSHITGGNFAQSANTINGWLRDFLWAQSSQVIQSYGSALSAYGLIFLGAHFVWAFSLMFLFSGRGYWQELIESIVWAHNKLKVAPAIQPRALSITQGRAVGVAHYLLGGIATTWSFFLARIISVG

LHCA1 (natural protein) yielded a stoichiometry N (copies, on a PSAF basis) in experiment [1] of 1.81. In addition, the amount in the PSI-LHCI supercomplex from the ΔLHCA5 mutant, percent of the control level in experiment [2] was determined as 50%.

Substance LHCA2 (natural protein) displayed a stoichiometry N (copy, on a PSAF basis) in experiment [1] of 1.

As for LHCA3 (natural protein), in experiment [1], the stoichiometry N (copy, on a PSAF basis) turned out to be 1.

For the substance LHCA5 (natural protein), the stoichiometry N (copy, on a PSAF basis) in experiment [1] was found to be 1.

LHCA7 (natural protein) registered a stoichiometry N (copy, on a PSAF basis) in experiment [1] of 1.

LHCA8 (natural protein): the stoichiometry N (copy, on a PSAF basis) in experiment [1] is 1.

In experiment [1], LHCA9 (natural protein) registered a stoichiometry N (copy, on a PSAF basis) of 1.

In turn, PSAD (natural protein) displayed a stoichiometry N (relative abundance, on a PSAF basis) in experiment [3] of 1.17.
